Data on one protein can be found in publication PMC10491200 (bioRxiv, 2023).

This data set concerns the molecule itself. Briefly: cryo-EM structure.

B1: human mGlu5 (21-872), metabotropic glutamate receptor subtype 5, in MSP2N2 lipid nanodisc (receptor)
chain: QSSERRVVAHMPGDIIIGALFSVHHQPTVDKVHERKCGAVREQYGIQRVEAMLHTLERINSDPTLLPNITLGCEIRDSCWHSAVALEQSIEFIRDSLISSEEEEGLVRCVDGSSSSFRSKKPIVGVIGPGSSSVAIQVQNLLQLFNIPQIAYSATSMDLSDKTLFKYFMRVVPSDAQQARAMVDIVKRYNWTYVSAVHTEGNYGESGMEAFKDMSAKEGICIAHSYKIYSNAGEQSFDKLLKKLTSHLPKARVVACFCEGMTVRGLLMAMRRLGLAGEFLLLGSDGWADRYDVTDGYQREAVGGITIKLQSPDVKWFDDYYLKLRPETNHRNPWFQEFWQHRFQCRLEGFPQENSKYNKTCNSSLTLKTHHVQDSKMGFVINAIYSMAYGLHNMQMSLCPGYAGLCDAMKPIDGRKLLESLMKTNFTGVSGDTILFDENGDSPGRYEIMNFKEMGKDYFDYINVGSWDNGELKMDDDEVWSKKSNIIRSVCSEPCEKGQIKVIRKGEVSCCWTCTPCKENEYVFDEYTCKACQLGSWPTDDLTGCDLIPVQYLRWGDPEPIAAVVFACLGLLATLFVTVVFIIYRDTPVVKSSSRELCYIILAGICLGYLCTFCLIAKPKQIYCYLQRIGIGLSPAMSYSALVTKTNRIARILAGSKKKICTKKPRFMSACAQLVIAFILICIQLGIIVALFIMEPPDIMHDYPSIREVYLICNTTNLGVVTPLGYNGLLILSCTFYAFKTRNVPANFNEAKYIAFTMYTTCIIWLAFVPIYFGSNYKIITMCFSVSLSATVALGCMFVPKVYIILAKPERNVRSAFTTSTVVRMHVGDGKSSSAASRSSSLVNLWKRRGSS
Regarding B1, the binding result is listed as “binds”.
